The record followed here is publication PMC7949108, “Medulloblastoma-associated mutations in the DEAD-box RNA helicase DDX3X/DED1 cause specific defects in translation”.

Some targets named below: Ded1-G488A (Saccharomyces cerevisiae, UniProt P06634 1-604, G488A); Ded1 wild-type (Saccharomyces cerevisiae, UniProt P06634 1-604); Ded1-S371F (Saccharomyces cerevisiae, UniProt P06634 1-604, S371F); Ded1-M339I (Saccharomyces cerevisiae, UniProt P06634 1-604, M339I).
Common to all, as to assay: fluorescence anisotropy; 2 mM ADP-BeFx; 20 mM HEPES pH 7.5, 40 mM NaCl, 20% glycerol, 2 mM ADP-BeFx; 2 nM RNA, 0-400 nM protein, 30 min; temperature not stated
Common to all, as to conditions: protein: recombinant; tags: His (pET28a); label: 5' 6-carboxyfluorescein; single strand
Background: Fluorescence polarisation rises when a labelled molecule tumbles more slowly, as on binding a larger partner.

Usually Kd stands for the equilibrium constant for the complex coming apart.

Chain of Ded1-G488A (P06634 whole entry G488A): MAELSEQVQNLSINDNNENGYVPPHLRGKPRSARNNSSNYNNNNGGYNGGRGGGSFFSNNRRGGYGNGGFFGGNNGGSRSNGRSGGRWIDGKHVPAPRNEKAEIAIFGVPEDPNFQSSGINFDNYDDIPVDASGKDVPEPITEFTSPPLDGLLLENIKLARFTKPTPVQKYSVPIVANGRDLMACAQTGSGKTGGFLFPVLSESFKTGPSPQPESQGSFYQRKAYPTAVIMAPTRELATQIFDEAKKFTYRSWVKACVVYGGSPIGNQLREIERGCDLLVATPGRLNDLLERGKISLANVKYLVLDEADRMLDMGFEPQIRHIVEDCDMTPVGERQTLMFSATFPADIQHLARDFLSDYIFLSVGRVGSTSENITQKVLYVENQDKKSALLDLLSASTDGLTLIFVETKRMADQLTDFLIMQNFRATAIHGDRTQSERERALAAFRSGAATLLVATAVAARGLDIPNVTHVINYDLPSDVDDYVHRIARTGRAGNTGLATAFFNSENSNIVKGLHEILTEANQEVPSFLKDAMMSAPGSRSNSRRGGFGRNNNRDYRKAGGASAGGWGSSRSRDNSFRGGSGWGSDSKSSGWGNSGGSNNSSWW
Chain of Ded1 wild-type (P06634 whole entry): as the sequence (P06634 whole entry G488A) above, with A488G counted along it
Chain of Ded1-M339I (P06634 whole entry M339I): as the sequence (P06634 whole entry G488A) above, with M339I, A488G counted along it
Chain of Ded1-S371F (P06634 whole entry S371F): as the sequence (P06634 whole entry G488A) above, with S371F, A488G counted along it

B1: 16-mer RNA oligomer (ssRNA)
RNA: AGCACCGUAAAGACGC
Turning to B1, the Kd stood at 78 nM with Ded1-G488A, 13 nM in the series with Ded1 wild-type, 11 nM with Ded1-S371F and 110 nM with Ded1-M339I.
